Experimental data taken from patent US12053511B2, “Cystatin C and Cystatin 9 to treat gut inflammation caused by thermal injury” (priority 2016, dated 2024).

B1: rCSTC: human recombinant cystatin C (CST3), cysteine proteinase inhibitor; purchased from R&D Systems (protein, UniProt P01034 27-146, looked up)
Cystatin-C: SSPGKPPRLVGGPMDASVEEEGVRRALDFAVGEYNKASNDMYHSRALQVVRARKQIVAGVNYFLDVELGRTTCTKTQPNLDNCPFHDQPHLKRKAFCSFQIYAVPWQGTMTLSKSTCQDA
B2: rCST9: human recombinant cystatin 9, cysteine proteinase inhibitor; purchased from American Research Products, Inc. (protein, UniProt Q5W186 29-159, looked up)
Cystatin-9: WCSEEEMGGNNKIVQDPMFLATVEFALNTFNVQSKEEHAYRLLRVLSSWREDSMDRKWRGKMVFSMNLQLRQTVCRKFEDDIDNCPFQESLELNNVRQGISFPQVHSCGCCMGCGVGTGAADKAIPRDKGK

Assays:
NDM-1 Kp = assay: In vitro bacteria viability and growth assay; format: cell-based, Klebsiella pneumoniae BAA-2146; conditions: given individually and in combination
Description: Anti-microbial activity of rCST9/rCSTC against NDM-1 Kp. […] To address this directly, PrestoBlue® was used to determine the viability of rCST9/rCSTC-treated NDM-1 Kp based in the reagents rapid reduction by metabolically active bacteria. […] The most substantial decrease in bacterial growth occurred with 50, 500, and 1000 pg of rCSTs compared to lower doses of 10 and 25 pg of rCSTs (FIGS. 7A-C).
Bacteria preparation. The MDR New Delhi metallo-beta-lactamase-1 (NDM-1) producing Klebsiella pneumoniae BAA-2146™ was purchased from ATCC and expanded for 18 hours in 10 mL of brain heart infusion (BHI) broth while shaking at 37° C. The overnight culture was pelleted by centrifugation and then suspended in PBS. Serial dilutions were performed to obtain the desired concentration. Ten-fold dilutions were plated on BHI agar to confirm experimental dosage.
In vitro bacteria viability and growth assay. As a measure of NDM-1 Kp viability, aliquots were treated with Prestoblue® cell viability reagent (Invivogen) following exposure to CSTs. […] Following incubation, […] of Prestoblue® reagent was added to each sample and incubated for 1 h before quantification of cell viability via absorbance at 570-600 nm measurement (Bio-Tek; Epoch Model). […] Additionally, 100 μL of cultures were plated on BHI plates to quantify colony-forming units (CFU) following an overnight incubation at 37° C. […]

[1] = tested on: monocyte-derived macrophages (MDM) infected with NDM-1-producing Kp; assay: Cytokine secretion from NDM-1 Kp-infected MDM; format: cell-based, human; conditions: rCSTC 50 pg, rCST9 25 or 50 pg, individually and in combination; vs Kp-infected MDM
gut microbiome [2] = assay: Gut microbiome in gavaged mice given 30% full-thickness burn; format: in vivo, Balb/c mice; conditions: gavage 50 pg/mouse, then 30% full-thickness burn
Description: It is known that intestinal leakage of intestinal bacteria and their product occurs following burn injury likely contributing to systemic infection and sepsis.

gut microbiome [3] = assay: Gut microbiome by 16S next generation sequencing, infection and thermal injury model; format: in vivo, Balb/c mice
Description: Mice were intraperitoneally (i.p.) challenged with 1×10^7 CFU of an intestinal isolate E. coli (EC) and 1000 ng of flagellin then treated i.p. with 500 pg rCST9 and/or 50 pg rCSTC followed by a 30% full-thickness thermal injury (30% TBSA). […] Additional groups of infected, rCST treated and/or thermally injured mice were euthanized at 24 and 48 h post-thermal injury to collect serum and harvest intestinal samples. Cytokines were quantified in the serum and analysis of the gut microbiome.
Gut samples were harvested at 24 and 48 h from the same 4 mouse groups euthanized to collect sera as described above. As we reported in a previous publication (8), briefly, approximately 3 mm^3 pieces of the intestine (close to the cecum) were sterilely harvested from each mouse. For gut microbiome analysis, DNA from intestinal samples was extracted from samples lysed in MagNA Pure DNA Tissue Lysis Buffer followed by automated extraction on a MagNA Pure 96 platform (Roche). The isolated DNA was amplified using a panel of five “universal” primer pairs (Ion Xpress Barcodes) that created overlapping 400 bp DNA fragments covering 95% of the bacterial 16S rDNA. Barcoded amplimers were mixed at equimolar ratios and then subjected to Ion Torrent NGS (Thermo Scientific). Average read length was >300 bases with sequence generated from both strands. Reads were filtered and binned according to Ion Xpress barcode with Ion Torrent Suite software (v 4.0.2). Sequencing reads were then further processed using Galaxy software where each barcode was trimmed to remove the primer sequence. The 16S sequences were compared to the SILVA database using bowtie 2 software to yield species or genera level matches to return the hit-rate. Where multiple calls to the same genera were made the number of hits were added accordingly. Hit rates were converted to percentage of total to give an overall ratio of the sequenced microbiome.

[4] = individual treatment, 24 and 48 h post-burn

| Molecule | replication of NDM-1-producing Kp (NDM-1 Kp) | cytokine secretion from infected MDM [1] | gut microbiome (gut microbiome [2]) | Bacteroidales S24-7 in gut microbiome (gut microbiome [3]; 24 h post-burn) | Lachnospiraceae family in gut microbiome (gut microbiome [3]; 24 h post-burn) | gut microbiome profile (gut microbiome [3]; 48 h post-burn) | gut microbiome profile (gut microbiome [3]; [4]) |
| --- | --- | --- | --- | --- | --- | --- | --- |
| B1 | inhibited the replication | restrained cytokine secretion | preserved the gut microbiome | noticeable but moderate increase | proportionate decrease | nearly equivalent to sham controls | preserved the gut microbiome that was equivalent to sham controls |
| B2 | inhibited the replication | restrained cytokine secretion | preserved the gut microbiome |  |  |  | preserved the gut microbiome that was equivalent to sham controls |
